Test results as given in patent US6680291.
Changes are numbered by the printed parent chain.

T1: human CNTF receptor alpha-component on MG87/CNTFR fibroblasts (human, UniProt P26992 23-342)
T1 construct: whole, on cells; Mouse fibroblast cell line transfected with the human CNTF alpha receptor gene; also called CNTFRalpha; MG87/huCNTFR
T1 sequence (looked up): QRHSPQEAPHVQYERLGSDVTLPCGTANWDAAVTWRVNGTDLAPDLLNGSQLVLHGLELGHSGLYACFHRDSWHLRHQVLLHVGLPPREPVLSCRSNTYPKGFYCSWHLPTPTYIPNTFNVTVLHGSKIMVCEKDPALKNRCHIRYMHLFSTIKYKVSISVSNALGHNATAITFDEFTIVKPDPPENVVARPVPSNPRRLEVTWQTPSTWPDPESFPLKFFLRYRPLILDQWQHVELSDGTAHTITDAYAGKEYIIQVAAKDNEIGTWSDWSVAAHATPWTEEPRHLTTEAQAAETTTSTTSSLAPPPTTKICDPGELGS

T2: rat CNTF receptor on rat superior cervical ganglia (SCG) neurons (rat, UniProt Q08406 23-342)
T2 construct: whole, on cells; The neurons carry the endogenous receptor, and the other receptor components may also be present; also called rat receptor
T2 sequence (looked up): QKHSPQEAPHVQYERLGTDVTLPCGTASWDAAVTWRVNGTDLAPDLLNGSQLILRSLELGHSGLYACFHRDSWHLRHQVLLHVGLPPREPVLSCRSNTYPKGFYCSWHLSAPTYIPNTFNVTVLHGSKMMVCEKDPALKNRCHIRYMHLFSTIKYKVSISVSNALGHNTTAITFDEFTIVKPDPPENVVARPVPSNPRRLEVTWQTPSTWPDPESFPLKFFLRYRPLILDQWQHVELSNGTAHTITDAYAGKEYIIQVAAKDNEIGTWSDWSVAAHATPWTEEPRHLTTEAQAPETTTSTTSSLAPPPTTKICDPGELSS

B1: RPN192 (ligand)
chain: MAFTEHSPLTPHRRDLCSRSIWLARKIRSDLTALTESYVKHQGLNKNINLDSADGMPVASTDQWSELTEAERLQENLQAYRTFQGMLTKLLEDQRVHFTPTEGDFHQAIHTLMLQVSAFAYQLEELMVLLEQKIPENEADGMPATVGDGGLFEKKLWGLKVLQELSQWTVRSIHDLRFISSHQTGIPARGSHYIANNKKM
notes: Chimeric CNTF
B2: recombinant human CNTF (ligand)
chain: MAFTEHSPLTPHRRDLCSRSIWLARKIRSDLTALTESYVKHQGLNKNINLDSADGMPVASTDQWSELTEAERLQENLQAYRTFHVLLARLLEDQQVHFTPTEGDFHQAIHTLLLQVAAFAYQIEELMILLEYKIPRNEADGMPINVGDGGLFEKKLWGLKVLQELSQWTVRSIHDLRFISSHQTGIPARGSHYIANNKKM
notes: also called rHCNTF; hCNTF
B3: RPN218 (ligand)
chain: B2 chain with T35M, A53V, M56V, Q63R, L67M
notes: Chimeric CNTF
B4: RPN187 (ligand)
chain: B2 chain with T4A, H6Q, S7T, P11L, T35M
notes: Chimeric CNTF
B5: RPN228 (ligand)
chain: B2 chain with Q63R
notes: Expressed in E. coli; also called RG228; rHCNTF,63QR
B6: RPN222 (ligand)
chain: B2 chain with A53V, L67M
notes: Chimeric CNTF
B7: RPN219 (ligand)
chain: B2 chain with A53V, M56V, Q63R, L67M
notes: Expressed in E. coli; also called CNTF RPN219
B8: recombinant rat CNTF (ligand)
chain: MAFAEQTPLTLHRRDLCSRSIWLARKIRSDLTALMESYVKHQGLNKNINLDSVDGVPVASTDRWSEMTEAERLQENLQAYRTFQGMLTKLLEDQRVHFTPTEGDFHQAIHTLMLQVSAFAYQLEELMVLLEQKIPENEADGMPATVGDGGLFEKKLWGLKVLQELSQWTVRSIHDLRVISSHQMGISALESHYGAKDKQM
notes: also called unlabelled rat CNTF
B9: RPN189 (ligand)
chain: B8 chain with V178F, M184T, S187P, L189R, E190G, G194I, K196N, D197N, Q199K
notes: Chimeric CNTF
B10: RPN186 (ligand)
chain: B8 chain with A4T, Q6H, T7S, L11P, M35T
notes: Chimeric CNTF

Experiments:
[1] = target: T1, human CNTF receptor alpha-component on …; assay: competition binding experiments, data not shown; cells not given
[2] = target: T2, rat CNTF receptor on rat superior …; assay: competition with 125I-rat CNTF on rat SCG neurons
Description: Growth medium consisted of Ham's nutrient mixture F12 with 10% heat-inactivated fetal bovine serum (Hyclone), nerve growth factor (NGF) (100 ng/ml), penicillin (50 U/ml) and streptomycin (50 µg/ml). Cultures were maintained at 37° C. in a humidified 95% air/5% CO_2 atmosphere. Ganglion non-neuronal cells were eliminated by treatment with araC (10 µM) on days 1 and 3 of culture. Cultures were fed 3 times/week and were routinely used for binding assays within 2 weeks.
(§1) Binding was performed directly on cell monolayers. Cells in culture wells were washed once with assay buffer consisting of phosphate buffered saline (PBS; pH 7.4), 0.1 mM bacitracin, 1 mM PMSF, 1 µg/ml leupeptin, and 1 mg/ml BSA. […] Non-specific binding was determined in the presence of 1,000-fold excess of unlabelled CNTF. Specific binding towards MG87/CNTFR was 80–90%. Data were analyzed using the […] program (ISI, Philadelphia, Pa.).

[3] = target: T1, human CNTF receptor alpha-component on …; assay: competition with 125I-rat CNTF on MG87/CNTFR cells
Description: as §1

Binder	binding result [1]	IC50 [2]	IC50 [3]	also measured
B1	binds			
B2		25 nM	30 nM	fold less potent than unlabelled rat CNTF [2]: 90 fold; fold less potent than rat CNTF [3]: 12 fold
B3	binds			
B4	binds			
B5			5.6 nM	
B6	binds			
B7		0.3 nM		
B8		0.28 nM	2.8 nM	
B9	binds			
B10	binds			
